Reference: patent CN109485724A (FUZHOU MAIXIN BIOTECHNOLOGY DEV CO LTD, dated 2019)

Target: T1, 重组Desmin蛋白 (人Desmin α螺旋杆状区第109位至第412位氨基酸片段 + 组氨酸标签, 大肠杆菌表达) (human, UniProt P17661 109-412)
T1 construct: range 109-412; Expressed in E. coli Rosetta from pET-28a(+) (EcoRI/HindIII), solubilised from inclusion bodies in 8 M urea and purified on Ni-NTA; also called 重组Desmin蛋白片段; 免疫原; not shown: histidine tag from vector pET28a(+)
Assay: indirect ELISA on coated recombinant Desmin; affinity constant calculated from the antibody concentration at half of the plateau OD450

T1 sequence (P17661 109-412): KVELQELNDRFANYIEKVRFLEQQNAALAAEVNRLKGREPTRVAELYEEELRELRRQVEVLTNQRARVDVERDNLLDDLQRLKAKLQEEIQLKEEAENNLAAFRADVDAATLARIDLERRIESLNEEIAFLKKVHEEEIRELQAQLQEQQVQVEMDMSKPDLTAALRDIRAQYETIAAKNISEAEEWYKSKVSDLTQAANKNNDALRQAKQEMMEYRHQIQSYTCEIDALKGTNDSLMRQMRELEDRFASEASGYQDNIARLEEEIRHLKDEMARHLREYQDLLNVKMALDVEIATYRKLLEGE

Ka: 6.82e+09 M⁻¹
B1: 抗Desmin蛋白单克隆抗体(14G1C12) (antibody, V domains shown)
VH: QIQLVQSGPELKKPGETVKISCKASGYTFTNYGMNWVKQAPGKGLKWMGWINTNTGEPTYAEEFKGRFAFSLETSASTAYLQINNLKNEDTATYFCAREFSSWGQGTLVTVSA
VL: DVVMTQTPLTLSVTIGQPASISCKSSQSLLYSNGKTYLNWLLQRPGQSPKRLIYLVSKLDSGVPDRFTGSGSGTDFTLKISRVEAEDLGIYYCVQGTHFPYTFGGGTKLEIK
notes: also called Desmin单克隆抗体; 14G1C12的Desmin
